Data reported in article PMC10888616, “Pleiotropic Effects of PhaR Regulator in Bradyrhizobium diazoefficiens Microaerobic Metabolism”.
Blank lines part the entries; values can stand above or below the molecule they belong to.

What was measured:
[1] = target: recombinant untagged PhaR protein of Bradyrhizobium diazoefficiens (Bradyrhizobium diazoefficiens); assay: SEC; Superdex 75 10/300 GL, mIVT buffer at pH 8 (40 mM Tris-HCl, 150 mM KCl, 0.1 mM EDTA, 0.1 mM DTT), 200 uL of untagged PhaR at 5 to 30 uM, 0.5 mL/min; tetramer to monomers; the monomer peak increased at lower concentrations
PhaR [2] = target: T1, PhaR (Bradyrhizobium diazoefficiens USDA 110, UniProt Q89XT0 1-197); assay: EMSA; mutation did not affect interaction at 1-2 uM PhaR; mIVT buffer: 40 mM Tris-HCl pH 7.0, 150 mM KCl, 0.1 mM EDTA, 0.1 mM DTT; 10 uL, 2 ng DNA, 0-2 uM PhaR, 30 min room temperature; 6% native PAGE 0.5X TBE, SYBR Gold; details: protein: recombinant; tags: untagged (C-terminal intein-CBD removed, IMPACT); chain copies: 4; blunt
T1 sequence: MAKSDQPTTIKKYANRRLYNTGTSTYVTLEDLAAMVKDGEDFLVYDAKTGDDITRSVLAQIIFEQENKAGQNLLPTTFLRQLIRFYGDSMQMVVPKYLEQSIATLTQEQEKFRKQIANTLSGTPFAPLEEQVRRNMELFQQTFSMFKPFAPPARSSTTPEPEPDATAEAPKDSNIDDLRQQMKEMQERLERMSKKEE

PhaR [3] = target: T1, PhaR; assay: EMSA; mIVT buffer: 40 mM Tris-HCl pH 7.0, 150 mM KCl, 0.1 mM EDTA, 0.1 mM DTT; 10 uL, 2 ng DNA, 0-2 uM PhaR, 30 min room temperature; 6% native PAGE 0.5X TBE, SYBR Gold; details: protein: recombinant; tags: untagged (C-terminal intein-CBD removed, IMPACT); chain copies: 4; blunt
PhaR [4] = target: T1, PhaR; assay: EMSA; shift at 0.5 uM PhaR; mIVT buffer: 40 mM Tris-HCl pH 7.0, 150 mM KCl, 0.1 mM EDTA, 0.1 mM DTT; 10 uL, 2 ng DNA, 0-2 uM PhaR, 30 min room temperature; 6% native PAGE 0.5X TBE, SYBR Gold; details: protein: recombinant; tags: untagged (C-terminal intein-CBD removed, IMPACT); chain copies: 4; blunt

- stoichiometry N [1]: 4
Molecule: recombinant untagged PhaR protein of Bradyrhizobium diazoefficiens (natural protein)

B1: blr4358 oligo, long PhaR box mutated (blr4358_EMSA_2) (dsDNA)
DNA 1: CGCCGGATCAGCAATAAAATATAAATTAATATAAGAAGGTCTCCAA
DNA 2: TTGGAGACCTTCTTATATTAATTTATATTTTATTGCTGATCCGGCG
- binding result (PhaR [2]): binds

B2: blr4358 oligo wild type (blr4358_EMSA_1) (dsDNA)
DNA 1: CGCCGGATCAGCCCGCCAAGATCAAGGCCGCGAAGAAGGTCTCCAA
DNA 2: TTGGAGACCTTCTTCGCGGCCTTGATCTTGGCGGGCTGATCCGGCG
- binding result (PhaR [3]): binds

B3: phaP1 67 bp wild type (5155_2) (dsDNA)
DNA 1: GATCTAGTTTTTGTGCGACGCACAAGATTCTTGACTTTTTTGTGCGTTGCACTAATTGTGGGCAGAG
DNA 2: CTCTGCCCACAATTAGTGCAACGCACAAAAAAGTCAAGAATCTTGTGCGTCGCACAAAAACTAGATC
- binding result (PhaR [4]): binds
